Entries after “also recorded” stand apart in the source; their conditions may differ. Like-named read-outs stand apart in the source and are kept apart here.
Key:
[1] = cited from earlier work; for T1/2 (half-life, deamidation): buffer
[2] = system: decapeptide RCNSGRFNGG-NH2; experiment: Decapeptide accelerated stability test, potency of intact peptide by HPLC; assay type: physicochemical
Experimental: To begin with, a decapeptide was synthesized by request at the Protein Facility of the Iowa State University Office of Biotechnology, using standard peptide synthesis methodology.
Samples containing this decapeptide were prepared under eight different conditions at two different pH values, pH 7 and 4. […] The preparation of these samples is now described. The ratios indicated are molar ratios of organic anion to decapeptide.
Into a sterile 15 mL plastic centrifuge tube (Corning Incorporated, Corning, N.Y.) was placed 0.0021 g decapeptide (Iowa State University, Ames, Iowa) and 7.0 g sterile water (Spectrum Chemicals Mfg. Corp., Gardena, Calif.). The pH was adjusted using 1.0N HCl (Spectrum Chemicals Mfg. Corp., Gardena, Calif.) to a pH of 4. Into a new 15 mL plastic centrifuge tube was placed 3.5 mL of a pH 4 solution. The pH was adjusted using only the necessary amount of 1.0N NaOH (Spectrum Chemicals Mfg. Corp., Gardena, Calif.) to a final pH of 7.
(anion:asparaginyl molar ratio). […] Into a new 15 mL plastic centrifuge tube was placed 3.5 mL of a pH 4 solution. The pH was adjusted using only the necessary amount of 1.0N NaOH to a final pH of 7.
(§1) Into a new 15 mL plastic centrifuge tube was placed 3.5 mL of a pH 4 solution. The pH was adjusted using only the necessary amount of 1.0N NaOH to a final pH of 7.
as §1, §1
Into a sterile 1.5 mL microcentrifuge tube was placed a 0.5 g portion of each sample condition and were placed at −18° C. This was the initial sample. The remaining pH 4 samples were placed at 65° C. until completion of the experiment. The remaining pH 7 samples were placed at 40° C. until completion of the experiment. […] This was the day 1 sample. The frozen initial and day 1 samples were thawed to room temperature, and assayed using HPLC.
The samples at the various timepoints were then analyzed with HPLC using the following conditions.
System: Schimadzu SCL-10A VP with diode array detector
Column: Phenomenex C18 Luna 5 um, 250×4.6 mm
Mobile Phase: Isocratic 90% (0.1%) TFA in water, 10% (0.08%) TFA in acetonitrile
The potency (mg/mL of intact peptide) was determined by integrating under this peak (performed by the instrument), and normalizing according to a standard run of the decapeptide.
The sample stressing and HPLC were applied as above.
(anion:asparaginyl ratio). Into a sterile 15 mL plastic centrifuge tube was placed 0.0021 g decapeptide, 0.0029 g N-acetyl-D-tryptophan (MP Biomedicals, Solon, Ohio) and 7.0 g sterile water. The pH was adjusted using 1.0N HCl to a pH of 4. Into a new 15 mL plastic centrifuge tube was placed 3.5 mL of a pH 4 solution. The pH was adjusted using only the necessary amount of 1.0N NaOH to a final pH of 7. Since the molar ratio of acetyltryptophan to decapeptide is 6:1, and each decapeptide has two asparaginyl residues, the molar ratio of NAT to asparagine is 3:1.
The pH was adjusted using only the necessary amount of 1.0N NaOH to a final pH of 7.

[3] = accepted approximate value, dilute aqueous solution; cited from earlier work
[4] = aqueous solution, pH 7.4, 37° C., Tris-HCl buffer
[5] = pH 7, 24 hours at 40° C., molar ratio anion:Asn 3

1-Antitrypsin (1QLP): human protein
T1/10 (time to 10% degradation by deamidation) [1, 4]: 6.1 days

Cl [Hydrochloric, hydrochloric acid]
potency remaining ([2]; pH 7, 24 hours at 40° C., HCl control, no organic anion, listed as HCl): less than 7%
potency remaining ([2]; pH 7, 24 hours at 40° C., HCl control, no organic anion, listed as hydrochloric acid control): under 7%

CC(=O)N[C@H](Cc1c[nH]c2ccccc12)C(=O)O [N-acetyltryptophanate, N-acetyl-D-tryptophan]
potency remaining ([2]; pH 4, stressed at 65° C., anion:Asn 3:1): 74%
Relative potency [2, 5]: 1.028
Relative potency ([2]; pH 7, 24 hours at 40° C., molar ratio anion:Asn 3, listed as N-acetyltryptophan): completely retained; also recorded: no detectable degradation
pKa (first listed) [3]: 3.37

O=C1NS(=O)(=O)c2ccccc21 [Saccharin, 2,3-dihydro-3-oxobenzisosulfonazole]
Relative potency ([2]; pH 4, 24 hours at 65° C., anion:Asn 10:1): 87%
Relative potency ([2]; pH 7, 24 hours at 40° C., molar ratio anion:Asn 1): 0.080
Relative potency ([2]; pH 7, 24 hours at 40° C., molar ratio anion:Asn 1, listed as saccharin): much less enhancement
Relative potency [2, 5]: 0.008
Relative potency ([2]; pH 7, 24 hours at 40° C., molar ratio anion:Asn 10): 0.523
Relative potency ([2]; pH 7, 24 hours at 40° C., molar ratio anion:Asn 10, listed as saccharin): enhanced stability

C[C@H](CCC(=O)O)[C@H]1CC[C@H]2[C@@H]3CC[C@@H]4C[C@H](O)CC[C@]4(C)[C@H]3C[C@H](O)[C@]12C [deoxycholic, deoxycholic acid]
pKa (first listed) [3]: 5.7

C[C@H](CCC(=O)NCC(=O)O)[C@H]1CC[C@H]2[C@@H]3[C@H](O)C[C@@H]4C[C@H](O)CC[C@]4(C)[C@H]3C[C@H](O)[C@]12C [glycocholic]
pKa (first listed) [3]: 3.6

CC(O)C(=O)O (stereo not shown) [lactic, lactic acid]
pKa (first listed) [3]: 3.95

O=C(O)/C=C\C(=O)O [maleic]
pKa (first listed) [3]: 3.9

CCCCCCCC/C=C\CCCCCCCC(=O)O [oleic]
pKa (first listed) [3]: 4.5

-Chymotrypsinogen (1CGI): human protein
T1/10 (time to 10% degradation by deamidation) [1, 4]: 2.4 days

Angiogenin (1A4Y): human protein
T1/10 (time to 10% degradation by deamidation) [1, 4]: 3.2 days

Annexin V (1ANX): human protein
T1/10 (time to 10% degradation by deamidation) [1, 4]: 33 days

Apoptosis regulator bax (1F16): human protein
T1/10 (time to 10% degradation by deamidation) [1, 4]: 26 days

Argininosuccinate lyase (1AOS): human protein
T1/10 (time to 10% degradation by deamidation) [1, 4]: 13 days

Carbonic anhydrase I (1HCB): human protein
T1/10 (time to 10% degradation by deamidation) [1, 4]: 6.8 days

Creatine kinase ( 1QK1): human protein
T1/2 (half-life, deamidation) ([1]; pH 7.4): 84 days
T1/10 (time to 10% degradation by deamidation) ([1]; pH 7.4): 13 days

Cyclophilin A (1AWQ): human protein
T1/10 (time to 10% degradation by deamidation) [1, 4]: 1.3 days

D-Glyceraldehyde-3-phosphate dehydrogenase (3GPD): human protein
T1/2 (half-life, deamidation) ([1]; pH 7.4): 4.2 days
T1/10 (time to 10% degradation by deamidation) ([1]; pH 7.4): 0.64 days

Fibroblast growth factor (2AFG): human protein
T1/10 (time to 10% degradation by deamidation) [1, 4]: 3.2 days

GTP-binding protein (1DOA): human protein
T1/10 (time to 10% degradation by deamidation) [1, 4]: 6.8 days

Growth hormone (1HGU): human protein
T1/10 (time to 10% degradation by deamidation) [1, 4]: 7.8 days

Growth hormone receptor (1A22): human protein
T1/10 (time to 10% degradation by deamidation) [1, 4]: 0.36 days

Homeobox protein PAX-6 (6PAX): human protein
T1/10 (time to 10% degradation by deamidation) [1, 4]: 5.9 days

Insulin (2HIU): human protein
T1/2 (half-life, deamidation) ([1]; pH 7.4): 260 days
T1/10 (time to 10% degradation by deamidation) ([1]; pH 7.4): 40 days

Interleukin-1 (2I1B): human protein
T1/10 (time to 10% degradation by deamidation) [1, 4]: 43 days

Interleukin-4 (2CYK): human protein
T1/10 (time to 10% degradation by deamidation) [1, 4]: 41 days

Interleukin-6 (1IL6): human protein
T1/10 (time to 10% degradation by deamidation) [1, 4]: 8.5 days

Interleukin-8 (1IL8): human protein
T1/10 (time to 10% degradation by deamidation) [1, 4]: 14 days

Interleukin-10 (2ILK): human protein
T1/10 (time to 10% degradation by deamidation) [1, 4]: 3.8 days

Intestinal fatty acid binding protein (3IFB): human protein
T1/2 (half-life, deamidation) ([1]; pH 7.4): 7.6 days
T1/10 (time to 10% degradation by deamidation) ([1]; pH 7.4): 1.2 days

Lysophospholipase (1LCL): human protein
T1/10 (time to 10% degradation by deamidation) [1, 4]: 2.4 days

Malic enzyme (1EFK): human protein
T1/2 (half-life, deamidation) ([1]; pH 7.4): 140 days
T1/10 (time to 10% degradation by deamidation) ([1]; pH 7.4): 21 days

Mitogen-activated protein kinase P38 (1WFC): human protein
T1/10 (time to 10% degradation by deamidation) [1, 4]: 17 days

N-acetylgalactosamine-4-sulfatase (1FSU): human protein
T1/10 (time to 10% degradation by deamidation) [1, 4]: 0.93 days

NAD(P)H dehydrogenase (1QBG): human protein
T1/10 (time to 10% degradation by deamidation) [1, 4]: 53 days

Peptidyl-prolyl cis-trans isomerase (1F8A): human protein
T1/10 (time to 10% degradation by deamidation) [1, 4]: 0.36 days

Platelet factor 4-HPF4 (1RHP): human protein
T1/10 (time to 10% degradation by deamidation) [1, 4]: 35 days

Proinsulin (1EFE): human protein
T1/10 (time to 10% degradation by deamidation) [1, 4]: 17 days

Stem cell factor (1EXZ): human protein
T1/10 (time to 10% degradation by deamidation) [1, 4]: 27 days

Transforming growth factor-two (1KLA): human protein
T1/10 (time to 10% degradation by deamidation) [1, 4]: 70 days

Triose phosphate isomerase (1HTI): human protein
T1/10 (time to 10% degradation by deamidation) [1, 4]: 7.9 days
